{
  "source": "patent CN112646029A",
  "binders": {"B1": {"name": "抗mBDNF抗体 (anti-mature brain-derived neurotrophic factor antibody) (antibody, V domains shown)", "VH": "EVKLEESGGGLVQPGGSMKLSCVASGFTFNNYWMNWVRQSPGKGLEWVAQIRLDSDNYATHYAESVIGRFTISSDDSKSSVYLQMNNLRAEDTGIYYCTAFDYAMDYWGQGTSVTVSS", "VL": "DIVMTQSHKFMSTSVGDRVSITCKASQDVGSAVAWYQQKPGQSPKLLIYWASTRHTGVPNRFTGSGSGTDFTLTISNVHSEDLADYFCQQYSSYPLTFGSRTKLEIK"}},
  "molecular_target": "T1, mBDNF (成熟脑源性神经营养因子, mature brain-derived neurotrophic factor) (Helarctos malayanus (Malayan sun bear) (Ursus malayanus)) (UniProt O18753)",
  "T1 sequence": "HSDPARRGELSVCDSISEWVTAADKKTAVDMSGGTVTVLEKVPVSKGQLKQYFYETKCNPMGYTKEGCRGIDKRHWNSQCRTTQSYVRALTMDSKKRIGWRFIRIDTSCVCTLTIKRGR",
  "test": "ELISA; antigen coated on the plate, purified antibody added, secondary antibody, TMB, OD450",
  "data": [
    {"binder": "B1", "values": [
      {"measurement": "lowest antigen concentration at which the antigen was detected", "result": 1.95, "unit": "ng/mL"}
    ]}
  ]
}
